Legend:
G56 (GCN4 bZIP element) [1] = molecular target: T1, G56 (GCN4 bZIP element) (UniProt P03069 P03069:226-281); experiment: EMSA; ddG -2.6 kcal/mol; settings: chain copies: 2 inferred; label: 32P
G56 (GCN4 bZIP element) [2] = molecular target: T1, G56 (GCN4 bZIP element); experiment: EMSA; settings: chain copies: 2 inferred; label: 32P

T1 sequence (P03069 226-281, one chain of several): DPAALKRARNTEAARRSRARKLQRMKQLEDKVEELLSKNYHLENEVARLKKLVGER

Row | Binder | binding signal (G56 (GCN4 bZIP element) [1]) | binding signal (G56 (GCN4 bZIP element) [2])
1 | CEBP24 (C/EBP24) (dsDNA) DNA 1: AGTGGAGATTGCGCAATCTCGTGC DNA 2: GCACGAGATTGCGCAATCTCCACT | 118 fold specificity ratio for CRE24 over CEBP24 | –
2 | CRE24 (dsDNA) DNA 1: AGTGGAGATGACGTCATCTCGTGC DNA 2: GCACGAGATGACGTCATCTCCACT | – | 118 fold preference over CEBP24
